Test [1] addresses syntaxin-1A (1–265) S225C, endogenous cysteines replaced by serine (Rattus norvegicus) (UniProt P32851). In words: FRET or BRET; stopped-flow; Alexa Fluor 488 (donor) and Alexa Fluor 647 (acceptor) on syntaxin and SNAP25; one partner fixed at 0.125 μM and the other titrated, or equimolar; 37 °C; 20 mM Hepes, 150 mM KCl, 0.1 mM TCEP, pH ~7.4. In general terms: BRET reads energy transfer from a luciferase to a nearby fluorophore.

In test [2] the target is 2:1 syntaxin:SNAP25 complex (premixed syntaxin-1A (1–265) S225C and SNAP25a (1–206) M49C) (Rattus norvegicus) (UniProt P32851). Kind of test: FRET or BRET; stopped-flow; donor-labelled syntaxin and acceptor-labelled SNAP25 at 1:1, unlabeled synaptobrevin titrated in excess; syntaxin and SNAP25 premixed, or SNAP25 and synaptobrevin added together to syntaxin; 37 °C.
Test [3] concerns the target SNAP25a (1–206) M49C, endogenous cysteines replaced by serine (Rattus norvegicus) (UniProt P60881). In words: FRET or BRET; stopped-flow; Alexa Fluor 488 (donor) and Alexa Fluor 647 (acceptor) on syntaxin and SNAP25; one partner fixed at 0.125 μM and the other titrated, or equimolar; 37 °C; 20 mM Hepes, 150 mM KCl, 0.1 mM TCEP, pH ~7.4.
Test [4] has the same target. In words: FRET or BRET + SEC; equimolar stopped-flow titration at 37 °C (kobs^2 hyperbolic) and size-exclusion chromatography of the 1:1 mix after overnight incubation at 4 °C (excess of free SNAP25).

“SNAP25a (1–206) M49C, endogenous cysteines replaced by serine (from UniProt P60881-2 1-206) (natural protein)” gave an intercept of kobs over [SNAP25]0 in test [1] of 0.019.
In test [2], “synaptobrevin 2 (1–96) S61C (from UniProt P63045 1-96) (domain or fragment)” registered a rate constant of the irreversible step (first, exponential phase) of 7520 M⁻¹ s⁻¹.
“syntaxin-1A (1–265) S225C, endogenous cysteines replaced by serine (from UniProt P32851 1-265) (domain or fragment)” registered an intercept of kobs over [syntaxin]0 in test [3] of 0.0032. Besides, the stoichiometry N (syntaxin per SNAP25) in test [4] came out at 2.

These data come from PMC11381810.
